From paper PMC3911823 (The FEBS journal, 2011)
Like-named read-outs stand apart in the source and are kept apart here.

What was measured:
Assay type in all cases: biochemical, rabbit (Oryctolagus cuniculus)
[1] = substrate: COc1ccc2c(C(F)(F)F)cc(=O)oc2c1; settings: other: 2B4 E474Q; Michaelis-Menten fit; 37.0 °C
[2] = substrate: CCOc1ccc2c(C(F)(F)F)cc(=O)oc2c1; settings: other: 2B4 E474Q; Michaelis-Menten fit; 37.0 °C
[3] = substrate: COc1ccc2c(C(F)(F)F)cc(=O)oc2c1; settings: other: 2B4 WT; substrate O-dealkylation, Michaelis-Menten fit; 37.0 °C
[4] = substrate: CCOc1ccc2c(C(F)(F)F)cc(=O)oc2c1; settings: other: 2B4 WT; substrate O-dealkylation, Michaelis-Menten fit; 37.0 °C
[5] = substrate: COc1ccc2c(C(F)(F)F)cc(=O)oc2c1; settings: other: 2B4 E474D; Michaelis-Menten fit; 37.0 °C
[6] = substrate: CCOc1ccc2c(C(F)(F)F)cc(=O)oc2c1; settings: other: 2B4 E474D; Michaelis-Menten fit; 37.0 °C
[7] = substrate: COc1ccc2c(C(F)(F)F)cc(=O)oc2c1; settings: other: 2B4 H172A; Michaelis-Menten fit; 37.0 °C
[8] = substrate: CCOc1ccc2c(C(F)(F)F)cc(=O)oc2c1; settings: other: 2B4 H172A; Michaelis-Menten fit; 37.0 °C
[9] = substrate: COc1ccc2c(C(F)(F)F)cc(=O)oc2c1; settings: other: 2B4 L437A; Michaelis-Menten fit; 37.0 °C
[10] = substrate: CCOc1ccc2c(C(F)(F)F)cc(=O)oc2c1; settings: other: 2B4 L437A; Michaelis-Menten fit; 37.0 °C
[11] = substrate: COc1ccc2c(C(F)(F)F)cc(=O)oc2c1; settings: other: 2B4 H172Q; Michaelis-Menten fit; 37.0 °C
[12] = substrate: CCOc1ccc2c(C(F)(F)F)cc(=O)oc2c1; settings: other: 2B4 H172Q; Michaelis-Menten fit; 37.0 °C

B1: P450 2B4 E474Q (Oryctolagus cuniculus; E474Q) (protein)
chain: MAKKTSSKGKLPPGPSPLPVLGNLLQMDRKGLLRSFLRLREKYGDVFTVYLGSRPVVVLCGTDAIREALVDQAEAFSGRGKIAVVDPIFQGYGVIFANGERWRALRRFSLATMRDFGMGKRSVEERIQEEARCLVEELRKSKGALLDNTLLFHSITSNIICSIVFGKRFDYKDPVFLRLLDLFFQSFSLISSFSSQVFELFPGFLKHFPGTHRQIYRNLQEINTFIGQSVEKHRATLDPSNPRDFIDVYLLRMEKDKSDPSSEFHHQNLILTVLSLFFAGTETTSTTLRYGFLLMLKYPHVTERVQKEIEQVIGSHRPPALDDRAKMPYTDAVIHEIQRLGDLIPFGVPHTVTKDTQFRGYVIPKNTEVFPVLSSALHDPRYFETPNTFNPGHFLDANGALKRNEGFMPFSLGKRICLGEGIARTELFLFFTTILQNFSIASPVPPEDIDLTPRQSGVGNVPPSYQIRFLAR
- Km [1]: 178 ± 17 µM
- kcat [1]: 0.04 ± 0.005 s⁻¹
- Km [2]: 64 ± 8 µM
- kcat [2]: 0.02 ± 0.0033 s⁻¹
- kcat/Km [2]: 333 M⁻¹ s⁻¹

B2: P450 2B4 wild type (Oryctolagus cuniculus) (protein)
chain: MAKKTSSKGKLPPGPSPLPVLGNLLQMDRKGLLRSFLRLREKYGDVFTVYLGSRPVVVLCGTDAIREALVDQAEAFSGRGKIAVVDPIFQGYGVIFANGERWRALRRFSLATMRDFGMGKRSVEERIQEEARCLVEELRKSKGALLDNTLLFHSITSNIICSIVFGKRFDYKDPVFLRLLDLFFQSFSLISSFSSQVFELFPGFLKHFPGTHRQIYRNLQEINTFIGQSVEKHRATLDPSNPRDFIDVYLLRMEKDKSDPSSEFHHQNLILTVLSLFFAGTETTSTTLRYGFLLMLKYPHVTERVQKEIEQVIGSHRPPALDDRAKMPYTDAVIHEIQRLGDLIPFGVPHTVTKDTQFRGYVIPKNTEVFPVLSSALHDPRYFETPNTFNPGHFLDANGALKRNEGFMPFSLGKRICLGEGIARTELFLFFTTILQNFSIASPVPPEDIDLTPRESGVGNVPPSYQIRFLAR
- Km [3]: 132 ± 6 µM
- kcat [3]: 0.188 ± 0.0033 s⁻¹
- kcat/Km [3]: 1330 M⁻¹ s⁻¹
- Km [4]: 25 ± 3 µM
- kcat [4]: 0.16 ± 0.0067 s⁻¹
- kcat/Km [4]: 6000 M⁻¹ s⁻¹

B3: P450 2B4 E474D (Oryctolagus cuniculus; E474D) (protein)
chain: MAKKTSSKGKLPPGPSPLPVLGNLLQMDRKGLLRSFLRLREKYGDVFTVYLGSRPVVVLCGTDAIREALVDQAEAFSGRGKIAVVDPIFQGYGVIFANGERWRALRRFSLATMRDFGMGKRSVEERIQEEARCLVEELRKSKGALLDNTLLFHSITSNIICSIVFGKRFDYKDPVFLRLLDLFFQSFSLISSFSSQVFELFPGFLKHFPGTHRQIYRNLQEINTFIGQSVEKHRATLDPSNPRDFIDVYLLRMEKDKSDPSSEFHHQNLILTVLSLFFAGTETTSTTLRYGFLLMLKYPHVTERVQKEIEQVIGSHRPPALDDRAKMPYTDAVIHEIQRLGDLIPFGVPHTVTKDTQFRGYVIPKNTEVFPVLSSALHDPRYFETPNTFNPGHFLDANGALKRNEGFMPFSLGKRICLGEGIARTELFLFFTTILQNFSIASPVPPEDIDLTPRDSGVGNVPPSYQIRFLAR
- Km [5]: 185 ± 14 µM
- kcat [5]: 0.0633 ± 0.0033 s⁻¹
- kcat/Km [5]: 333 M⁻¹ s⁻¹
- Km [6]: 77 ± 10 µM
- kcat [6]: 0.0067 ± 0.0017 s⁻¹

B4: P450 2B4 H172A (Oryctolagus cuniculus; H172A) (protein)
chain: MAKKTSSKGKLPPGPSPLPVLGNLLQMDRKGLLRSFLRLREKYGDVFTVYLGSRPVVVLCGTDAIREALVDQAEAFSGRGKIAVVDPIFQGYGVIFANGERWRALRRFSLATMRDFGMGKRSVEERIQEEARCLVEELRKSKGALLDNTLLFASITSNIICSIVFGKRFDYKDPVFLRLLDLFFQSFSLISSFSSQVFELFPGFLKHFPGTHRQIYRNLQEINTFIGQSVEKHRATLDPSNPRDFIDVYLLRMEKDKSDPSSEFHHQNLILTVLSLFFAGTETTSTTLRYGFLLMLKYPHVTERVQKEIEQVIGSHRPPALDDRAKMPYTDAVIHEIQRLGDLIPFGVPHTVTKDTQFRGYVIPKNTEVFPVLSSALHDPRYFETPNTFNPGHFLDANGALKRNEGFMPFSLGKRICLGEGIARTELFLFFTTILQNFSIASPVPPEDIDLTPRESGVGNVPPSYQIRFLAR
- Km [7]: 126 ± 11 µM
- kcat [7]: 0.0867 ± 0.01 s⁻¹
- kcat/Km [7]: 667 M⁻¹ s⁻¹
- Km [8]: 26 ± 4 µM
- kcat [8]: 0.07 ± 0.005 s⁻¹
- kcat/Km [8]: 2500 M⁻¹ s⁻¹

B5: P450 2B4 L437A (Oryctolagus cuniculus; L437A) (protein)
chain: MAKKTSSKGKLPPGPSPLPVLGNLLQMDRKGLLRSFLRLREKYGDVFTVYLGSRPVVVLCGTDAIREALVDQAEAFSGRGKIAVVDPIFQGYGVIFANGERWRALRRFSLATMRDFGMGKRSVEERIQEEARCLVEELRKSKGALLDNTLLFHSITSNIICSIVFGKRFDYKDPVFLRLLDLFFQSFSLISSFSSQVFELFPGFLKHFPGTHRQIYRNLQEINTFIGQSVEKHRATLDPSNPRDFIDVYLLRMEKDKSDPSSEFHHQNLILTVLSLFFAGTETTSTTLRYGFLLMLKYPHVTERVQKEIEQVIGSHRPPALDDRAKMPYTDAVIHEIQRLGDLIPFGVPHTVTKDTQFRGYVIPKNTEVFPVLSSALHDPRYFETPNTFNPGHFLDANGALKRNEGFMPFSLGKRICAGEGIARTELFLFFTTILQNFSIASPVPPEDIDLTPRESGVGNVPPSYQIRFLAR
- Km [9]: 85 ± 8 µM
- kcat [9]: 0.03 ± 0.0033 s⁻¹
- kcat/Km [9]: 333 M⁻¹ s⁻¹
- Km [10]: 25 ± 4 µM
- kcat [10]: 0.045 ± 0.0033 s⁻¹
- kcat/Km [10]: 2000 M⁻¹ s⁻¹

B6: P450 2B4 H172Q (Oryctolagus cuniculus; H172Q) (protein)
chain: MAKKTSSKGKLPPGPSPLPVLGNLLQMDRKGLLRSFLRLREKYGDVFTVYLGSRPVVVLCGTDAIREALVDQAEAFSGRGKIAVVDPIFQGYGVIFANGERWRALRRFSLATMRDFGMGKRSVEERIQEEARCLVEELRKSKGALLDNTLLFQSITSNIICSIVFGKRFDYKDPVFLRLLDLFFQSFSLISSFSSQVFELFPGFLKHFPGTHRQIYRNLQEINTFIGQSVEKHRATLDPSNPRDFIDVYLLRMEKDKSDPSSEFHHQNLILTVLSLFFAGTETTSTTLRYGFLLMLKYPHVTERVQKEIEQVIGSHRPPALDDRAKMPYTDAVIHEIQRLGDLIPFGVPHTVTKDTQFRGYVIPKNTEVFPVLSSALHDPRYFETPNTFNPGHFLDANGALKRNEGFMPFSLGKRICLGEGIARTELFLFFTTILQNFSIASPVPPEDIDLTPRESGVGNVPPSYQIRFLAR
- Km [11]: 115 ± 15 µM
- kcat [11]: 0.123 ± 0.0083 s⁻¹
- kcat/Km [11]: 1000 M⁻¹ s⁻¹
- Km [12]: 48 ± 6 µM
- kcat [12]: 0.0283 ± 0.005 s⁻¹
- kcat/Km [12]: 667 M⁻¹ s⁻¹
